This is an account of results in publication PMC2884949, “The outer membrane secretin PilQ from Neisseria meningitidis binds DNA”.

The target of series [1] is T1, PilQ352-761 (Neisseria meningitidis M1080, UniProt Q9JVW4 352-761).
T1 sequence: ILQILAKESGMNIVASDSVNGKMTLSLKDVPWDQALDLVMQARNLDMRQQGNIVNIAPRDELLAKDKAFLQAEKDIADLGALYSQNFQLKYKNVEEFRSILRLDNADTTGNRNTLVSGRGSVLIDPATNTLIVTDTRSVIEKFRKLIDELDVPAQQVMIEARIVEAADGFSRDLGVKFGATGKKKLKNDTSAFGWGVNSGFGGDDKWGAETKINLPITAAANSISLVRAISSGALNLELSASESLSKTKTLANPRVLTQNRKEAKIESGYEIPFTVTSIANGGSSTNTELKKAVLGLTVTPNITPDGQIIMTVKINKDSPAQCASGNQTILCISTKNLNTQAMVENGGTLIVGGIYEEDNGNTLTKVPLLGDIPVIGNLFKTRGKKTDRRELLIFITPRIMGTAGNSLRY
As to the kind of experiment: EMSA; 5 mM Mg2+; EMSA: 50 mM MOPS pH 7.5, 1 mM EDTA, 1 mM DTT, 5 mM MgCl2, 5% glycerol, 200 ng protein in 10 ul, 20 min room temperature; 6% PAGE. The conditions noted are these: protein: recombinant, tags: His (C-terminal with pET28b), label: 5' 32P.

Series [2] deals with T2, PilQ25-354 (Neisseria meningitidis M1080, UniProt Q9JVW4 25-354).
T2 sequence: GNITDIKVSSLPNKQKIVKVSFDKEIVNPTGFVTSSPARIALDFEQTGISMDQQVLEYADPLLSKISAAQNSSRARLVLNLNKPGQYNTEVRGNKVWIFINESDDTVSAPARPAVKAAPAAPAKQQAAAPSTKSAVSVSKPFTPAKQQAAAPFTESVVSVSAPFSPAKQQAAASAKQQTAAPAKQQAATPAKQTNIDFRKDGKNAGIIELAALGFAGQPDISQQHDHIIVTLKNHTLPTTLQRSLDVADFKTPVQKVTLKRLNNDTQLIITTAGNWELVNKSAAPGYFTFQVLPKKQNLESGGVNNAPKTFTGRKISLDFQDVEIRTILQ
Described as above. The following applies: protein: recombinant, tags: His (N-terminal with pQE30), label: 5' 32P.

Series [3] concerns the target T3, PilQ25-132 (Neisseria meningitidis M1080, UniProt Q9JVW4 25-132).
T3 sequence: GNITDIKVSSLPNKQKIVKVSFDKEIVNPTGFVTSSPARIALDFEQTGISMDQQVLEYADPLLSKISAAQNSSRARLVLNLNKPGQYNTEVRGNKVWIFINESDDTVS
The description is as above. The conditions noted are these: protein: recombinant, tags: His, label: 5' 32P.

Series [4] deals with T4, PilQ218-478 (Neisseria meningitidis M1080, UniProt Q9JVW4 218-478).
T4 sequence: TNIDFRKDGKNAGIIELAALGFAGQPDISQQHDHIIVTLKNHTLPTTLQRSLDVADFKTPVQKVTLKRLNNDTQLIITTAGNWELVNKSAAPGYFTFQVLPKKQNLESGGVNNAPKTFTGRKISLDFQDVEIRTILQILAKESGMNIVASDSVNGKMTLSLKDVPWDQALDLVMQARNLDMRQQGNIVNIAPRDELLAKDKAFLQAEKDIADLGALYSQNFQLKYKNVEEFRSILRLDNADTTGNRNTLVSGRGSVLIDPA
Described as above. The conditions noted are these: protein: recombinant, tags: His (N-terminal with pQE30), label: 5' 32P.

Series [5] concerns the target T5, PilQ complex (native secretin) (Neisseria meningitidis M1080, UniProt Q9JVW4 25-761).
T5 sequence: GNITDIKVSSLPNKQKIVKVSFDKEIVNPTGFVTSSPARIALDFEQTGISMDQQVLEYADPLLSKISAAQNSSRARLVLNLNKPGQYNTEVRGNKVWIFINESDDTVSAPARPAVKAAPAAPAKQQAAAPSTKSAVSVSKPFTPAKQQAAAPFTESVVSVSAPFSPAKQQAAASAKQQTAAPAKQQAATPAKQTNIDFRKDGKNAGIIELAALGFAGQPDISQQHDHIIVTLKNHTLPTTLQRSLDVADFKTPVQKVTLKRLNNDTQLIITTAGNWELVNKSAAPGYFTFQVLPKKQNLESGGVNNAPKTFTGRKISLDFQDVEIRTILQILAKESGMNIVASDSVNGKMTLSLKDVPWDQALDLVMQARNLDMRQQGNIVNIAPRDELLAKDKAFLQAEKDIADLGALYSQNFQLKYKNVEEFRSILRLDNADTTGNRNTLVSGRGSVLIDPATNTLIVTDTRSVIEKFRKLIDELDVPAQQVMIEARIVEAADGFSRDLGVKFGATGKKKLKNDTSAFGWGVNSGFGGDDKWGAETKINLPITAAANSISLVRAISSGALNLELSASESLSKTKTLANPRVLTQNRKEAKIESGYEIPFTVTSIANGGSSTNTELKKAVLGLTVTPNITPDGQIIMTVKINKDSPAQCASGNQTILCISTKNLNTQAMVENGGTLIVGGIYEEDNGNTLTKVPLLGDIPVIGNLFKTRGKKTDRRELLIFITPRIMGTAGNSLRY
As to the kind of experiment: Southwestern; whole-cell lysate, PilQ multimer band; EMSA: 50 mM MOPS pH 7.5, 1 mM EDTA, 1 mM DTT, 5 mM MgCl2, 5% glycerol, 200 ng protein in 10 ul, 20 min room temperature; 6% PAGE. The conditions noted are these: chain copies: 12, label: 5' 32P, ss, 1 strand.

B1: T7 (ssDNA)
DNA: CCGCCGCCTGCCGTCTGAAAGATATTCAGACGGCATCGGC
Turning to B1, the binding result is “no binding” in series [1] (ss, 1 strand); “binds” in series [2] (ss, 1 strand); “no binding” in series [3] (ss, 1 strand).

B2: T7+T8 hybrid (dsDNA)
DNA 1: CCGCCGCCTGCCGTCTGAAAGATATTCAGACGGCATCGGC
DNA 2: GCCGATGCCGTCTGAATATCTTTCAGACGGCAGGCGGCGG
B2: the values for the binding result in series [1] (blunt) and in series [2] (blunt) were “no binding” and “binds”, respectively.

B3: T4 (ssDNA)
DNA: TGTTGTTGTTGTTGGCCTGTCATTTTGGATGACAGGCCTGTTGTTGTTGTTG
On to B3, for which the binding result is on record as “no binding” in series [1] (ss, 1 strand); “binds” in series [2] (ss, 1 strand); “no binding” in series [3] (ss, 1 strand); “no binding” in series [4] (ss, 1 strand).

B4: T3 (ssDNA)
DNA: CAACAACAACAACAGGCCTGTCATCCAAAATGACAGGCCAACAACAACAACA
In the case of B4, the binding result in series [1] (ss, 1 strand) is recorded as “no binding”; in series [2] (ss, 1 strand), “binds”; in series [3] (ss, 1 strand), “no binding”; in series [4] (ss, 1 strand), “no binding”.

B5: T3+T4 hybrid (dsDNA)
DNA 1: CAACAACAACAACAGGCCTGTCATCCAAAATGACAGGCCAACAACAACAACA
DNA 2: TGTTGTTGTTGTTGGCCTGTCATTTTGGATGACAGGCCTGTTGTTGTTGTTG
As for B5, the results for the binding result in series [1] (blunt), in series [2] (blunt) and in series [3] (blunt) were “no binding”, “binds” and “binds”, respectively.

B6: T2 (ssDNA)
DNA: TGTTGTTGTTGTTGCCGTCTGAATTTGGTTCAGACGGCTGTTGTTGTTGTTG
B6: the binding result in series [1] (ss, 1 strand) is “no binding”; in series [2] (ss, 1 strand) it was “binds”; in series [3] (ss, 1 strand) it was “no binding”.

B7: T8 (ssDNA)
DNA: GCCGATGCCGTCTGAATATCTTTCAGACGGCAGGCGGCGG
As to B7, the binding result is on record as “no binding” in series [1] (ss, 1 strand); “binds” in series [2] (ss, 1 strand); “no binding” in series [4] (ss, 1 strand).

B8: T1 (ssDNA)
DNA: CAACAACAACAACAGCCGTCTGAACCAAATTCAGACGGCAACAACAACAACA
On to B8, for which the binding result is recorded as “no binding” in series [1] (ss, 1 strand); “binds” in series [2] (ss, 1 strand); “no binding” in series [3] (ss, 1 strand); “no binding” in series [4] (ss, 1 strand); “binds” in series [5].

B9: T1+T2 hybrid (dsDNA)
DNA 1: CAACAACAACAACAGCCGTCTGAACCAAATTCAGACGGCAACAACAACAACA
DNA 2: TGTTGTTGTTGTTGCCGTCTGAATTTGGTTCAGACGGCTGTTGTTGTTGTTG
B9: the binding result in series [1] (blunt) is “no binding”; in series [2] (blunt), “binds”; in series [4] (blunt) it was “no binding”.
